Measured values: the supplement of paper PMC10567573

B1: SOAT1 (parent)
chain: VYYIFERLCAPLFRNIKQEPFSAR
B2: TRIM55 (parent)
chain: YLPTRGGTTMASGGRFRCPSCRHE

Variants of: B1
Assay: protein stability index of a GFP-peptide fusion (GPS, HEK-293T) (PSI 1-6); higher = more stable
Settings: c terminus: a fixed tail appended
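Note: lentivirally expressed fusions sorted by FACS into six bins by GFP to DsRed ratio, PSI derived from sequencing read proportions per bin multiplied by bin number.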

Point of comparison: NYYIFERLCAPLFRNIKQEPFSAR, protein stability index 2.22. Against it:
- VCYIFERLCAPLFRNIKQEPFSAR — lower, 1.3
- VQYIFERLCAPLFRNIKQEPFSAR — higher, 2.42
- VMYIFERLCAPLFRNIKQEPFSAR — higher, 2.83
- VWYIFERLCAPLFRNIKQEPFSAR — higher, 2.26
- VFYIFERLCAPLFRNIKQEPFSAR — higher, 2.86
- VPYIFERLCAPLFRNIKQEPFSAR — lower, 1.44
- VAYIFERLCAPLFRNIKQEPFSAR — higher, 2.52
- VTYIFERLCAPLFRNIKQEPFSAR — higher, 2.97
- VNYIFERLCAPLFRNIKQEPFSAR — lower, 1.76
- VSYIFERLCAPLFRNIKQEPFSAR — lower, 1.87
- VGYIFERLCAPLFRNIKQEPFSAR — lower, 1.89
- VRYIFERLCAPLFRNIKQEPFSAR — lower, 1.59
- VKYIFERLCAPLFRNIKQEPFSAR — lower, 1.5
- VHYIFERLCAPLFRNIKQEPFSAR — higher, 2.26
- VEYIFERLCAPLFRNIKQEPFSAR — higher, 3.36
- VIYIFERLCAPLFRNIKQEPFSAR — higher, 3.75
- MYYIFERLCAPLFRNIKQEPFSAR — higher, 2.28
- RYYIFERLCAPLFRNIKQEPFSAR — higher, 2.24
- IYYIFERLCAPLFRNIKQEPFSAR — lower, 1.82
- FYYIFERLCAPLFRNIKQEPFSAR — lower, 2.17
- AYYIFERLCAPLFRNIKQEPFSAR — lower, 1.74
- CYYIFERLCAPLFRNIKQEPFSAR — lower, 1.17
- KYYIFERLCAPLFRNIKQEPFSAR — lower, 1.55
- DYYIFERLCAPLFRNIKQEPFSAR — lower, 1.44
- GYYIFERLCAPLFRNIKQEPFSAR — lower, 1.7
- LYYIFERLCAPLFRNIKQEPFSAR — higher, 2.5
- EYYIFERLCAPLFRNIKQEPFSAR — lower, 1.3
- HYYIFERLCAPLFRNIKQEPFSAR — lower, 1.41
- QYYIFERLCAPLFRNIKQEPFSAR — lower, 1.32
- PYYIFERLCAPLFRNIKQEPFSAR — lower, 1.32
- SYYIFERLCAPLFRNIKQEPFSAR — lower, 2.13
- VYYRFERLCAPLFRNIKQEPFSAR — higher, 3.07
- VYYSFERLCAPLFRNIKQEPFSAR — lower, 2.12
- VYYQFERLCAPLFRNIKQEPFSAR — higher, 2.65
- VYYGFERLCAPLFRNIKQEPFSAR — lower, 1.71
- VYYDFERLCAPLFRNIKQEPFSAR — lower, 1.55
- VYYWFERLCAPLFRNIKQEPFSAR — lower, 1.94
- VYYPFERLCAPLFRNIKQEPFSAR — lower, 1.64
- VYYYFERLCAPLFRNIKQEPFSAR — lower, 2.11
- VYYMFERLCAPLFRNIKQEPFSAR — higher, 3.78
- VYYEFERLCAPLFRNIKQEPFSAR — lower, 1.82
- VYYLFERLCAPLFRNIKQEPFSAR — higher, 2.64
- VYYKFERLCAPLFRNIKQEPFSAR — higher, 2.81
- VYYIRERLCAPLFRNIKQEPFSAR — higher, 2.8
- VYYIAERLCAPLFRNIKQEPFSAR — lower, 1.68
- VYYIDERLCAPLFRNIKQEPFSAR — lower, 1.95
- VYYIHERLCAPLFRNIKQEPFSAR — lower, 1.56
- VYYIVERLCAPLFRNIKQEPFSAR — higher, 3.45
- VYYIEERLCAPLFRNIKQEPFSAR — higher, 2.49
- VYYIMERLCAPLFRNIKQEPFSAR — lower, 1.9
- VYYIYERLCAPLFRNIKQEPFSAR — lower, 1.81
- VYYIPERLCAPLFRNIKQEPFSAR — higher, 2.6
- VYYIIERLCAPLFRNIKQEPFSAR — lower, 1.64
- VYYICERLCAPLFRNIKQEPFSAR — higher, 2.46
- VYYISERLCAPLFRNIKQEPFSAR — lower, 1.97
- VYYINERLCAPLFRNIKQEPFSAR — lower, 1.49
- VYSIFERLCAPLFRNIKQEPFSAR — higher, 3.46
- VYWIFERLCAPLFRNIKQEPFSAR — higher, 2.93
- VYNIFERLCAPLFRNIKQEPFSAR — lower, 2.11
- VYQIFERLCAPLFRNIKQEPFSAR — higher, 3.86
- VYFIFERLCAPLFRNIKQEPFSAR — higher, 2.75
- VYIIFERLCAPLFRNIKQEPFSAR — higher, 3
- VYDIFERLCAPLFRNIKQEPFSAR — lower, 1.45
- VYPIFERLCAPLFRNIKQEPFSAR — lower, 2.12
- VYKIFERLCAPLFRNIKQEPFSAR — higher, 2.5
- VYGIFERLCAPLFRNIKQEPFSAR — lower, 1.22
- VYAIFERLCAPLFRNIKQEPFSAR — higher, 2.26
- VYHIFERLCAPLFRNIKQEPFSAR — lower, 1.71
- VYEIFERLCAPLFRNIKQEPFSAR — lower, 1.5
- VYVIFERLCAPLFRNIKQEPFSAR — higher, 3.21
- VYCIFERLCAPLFRNIKQEPFSAR — higher, 3.23
- VYMIFERLCAPLFRNIKQEPFSAR — lower, 1.77
- VYYIFEDLCAPLFRNIKQEPFSAR — higher, 4.14
- VYYIFEILCAPLFRNIKQEPFSAR — higher, 5.23
- VYYIFEHLCAPLFRNIKQEPFSAR — higher, 2.62
- VYYIFEMLCAPLFRNIKQEPFSAR — lower, 1.08
- VYYIFLRLCAPLFRNIKQEPFSAR — higher, 4.01
- VYYIFCRLCAPLFRNIKQEPFSAR — higher, 3.08
- VYYIFWRLCAPLFRNIKQEPFSAR — higher, 2.59
- VYYIFYRLCAPLFRNIKQEPFSAR — higher, 2.53
- VYYIFMRLCAPLFRNIKQEPFSAR — higher, 2.41
- VYYIFTRLCAPLFRNIKQEPFSAR — higher, 2.61
- VYYIFARLCAPLFRNIKQEPFSAR — higher, 2.38
- VYYIFFRLCAPLFRNIKQEPFSAR — higher, 3.18
- VYYIFPRLCAPLFRNIKQEPFSAR — lower, 1.83
- VYYIFRRLCAPLFRNIKQEPFSAR — lower, 2.09
- VYYIFNRLCAPLFRNIKQEPFSAR — higher, 2.65
- VYYIFDRLCAPLFRNIKQEPFSAR — higher, 3
- VYYIFKRLCAPLFRNIKQEPFSAR — higher, 2.23

Variants of: B2
Assay: as above
Settings: c terminus: a fixed tail appended

Point of comparison: YLPTRGGTTMASGGRFRCPSCRHV, protein stability index 2.29. Against it:
- YLPTRGGTTMASGGRFRCPSWRHE — lower, 2.21
- YLPTRGGTTMASGGRFRCPSIRHE — higher, 3.09
- YLPTRGGTTMASGGRFRCPSDRHE — higher, 3.62
- YLPTRGGTTMASGGRFRCPSSRHE — higher, 3.03
- YLPTRGGTTMASGGRFRCPSNRHE — higher, 3.96
- YLPTRGGTTMASGGRFRCPSERHE — higher, 4.03
- YLPTRGGTTMASGGRFRCPSLRHE — higher, 2.86
- YLPTRGGTTMASGGRFRCPSTRHE — higher, 3.14
- YLPTRGGTTMASGGRFRCPSHRHE — higher, 3
- YLPTRGGTTMASGGRFRCPSYRHE — higher, 2.35
- YLPTRGGTTMASGGRFRCPSARHE — higher, 3.98
- YLPTRGGTTMASGGRFRCPSMRHE — higher, 2.51
- YLPTRGGTTMASGGRFRCPDCRHE — lower, 1.98
- YLPTRGGTTMASGGRFRCPWCRHE — lower, 1.12
- YLPTRGGTTMASGGRFRCPLCRHE — lower, 2.09
- YLPTRGGTTMASGGRFRCPPCRHE — higher, 2.39
- YLPTRGGTTMASGGRFRCPYCRHE — lower, 1.46
- YLPTRGGTTMASGGRFRCPNCRHE — lower, 1.93
- YLPTRGGTTMASGGRFRCPQCRHE — lower, 1.8
- YLPTRGGTTMASGGRFRCPMCRHE — lower, 1.04
- YLPTRGGTTMASGGRFRCPRCRHE — lower, 2.04
- YLPTRGGTTMASGGRFRCPECRHE — lower, 2.01
- YLPTRGGTTMASGGRFRCPTCRHE — higher, 2.48
- YLPTRGGTTMASGGRFRCPGCRHE — lower, 1.92
- YLPTRGGTTMASGGRFRCPKCRHE — lower, 2.27
- YLPTRGGTTMASGGRFRCPHCRHE — lower, 2.13
- YLPTRGGTTMASGGRFRCPSCRCE — higher, 3.34
- YLPTRGGTTMASGGRFRCPSCRPE — higher, 3.14
- YLPTRGGTTMASGGRFRCPSCRSE — higher, 3.03
- YLPTRGGTTMASGGRFRCPSCRVE — lower, 2
- YLPTRGGTTMASGGRFRCPSCRME — lower, 1.52
- YLPTRGGTTMASGGRFRCPSCRKE — higher, 3.39
- YLPTRGGTTMASGGRFRCPSCNHE — higher, 2.4
- YLPTRGGTTMASGGRFRCPSCPHE — higher, 3.78
- YLPTRGGTTMASGGRFRCPSCIHE — higher, 2.4
- YLPTRGGTTMASGGRFRCPSCQHE — lower, 2.12
- YLPTRGGTTMASGGRFRCPSCSHE — higher, 3.2
- YLPTRGGTTMASGGRFRCPSCKHE — higher, 2.94
- YLPTRGGTTMASGGRFRCPSCCHE — lower, 1.97
- YLPTRGGTTMASGGRFRCPSCHHE — higher, 2.4
- YLPTRGGTTMASGGRFRCPSCGHE — higher, 2.79
- YLPTRGGTTMASGGRFRCPSCWHE — lower, 2.01
- YLPTRGGTTMASGGRFRCPSCAHE — higher, 2.59
- YLPTRGGTTMASGGRFRCPSCEHE — higher, 4.06
- YLPTRGGTTMASGGRFRCPSCDHE — higher, 2.9
- YLPTRGGTTMASGGRFRCPSCVHE — lower, 2.25
- YLPTRGGTTMASGGRFRCPSCYHE — lower, 2.07
- YLPTRGGTTMASGGRFRCPSCFHE — higher, 2.38
- YLPTRGGTTMASGGRFRCPSCRHQ — higher, 3.06
- YLPTRGGTTMASGGRFRCPSCRHS — lower, 1.53
- YLPTRGGTTMASGGRFRCPSCRHD — lower, 1.93
- YLPTRGGTTMASGGRFRCPSCRHK — lower, 2.04
- YLPTRGGTTMASGGRFRCPSCRHM — lower, 1.6
- YLPTRGGTTMASGGRFRCPSCRHH — lower, 1.47
- YLPTRGGTTMASGGRFRCPSCRHI — lower, 1.41
- YLPTRGGTTMASGGRFRCPSCRHT — lower, 1.78
- YLPTRGGTTMASGGRFRCPSCRHA — lower, 1.59
- YLPTRGGTTMASGGRFRCPSCRHC — lower, 2.07
- YLPTRGGTTMASGGRFRCPSCRHL — lower, 1.57
- YLPTRGGTTMASGGRFRCPSCRHG — lower, 1.06
- YLPTRGGTTMASGGRFRCPSCRHY — higher, 2.55
- YLPTRGGTTMASGGRFRCPSCRHP — the same, 2.29
- YLPTRGGTTMASGGRFRCGSCRHE — higher, 2.34
- YLPTRGGTTMASGGRFRCTSCRHE — lower, 2.18
- YLPTRGGTTMASGGRFRCYSCRHE — lower, 2
- YLPTRGGTTMASGGRFRCMSCRHE — lower, 1.61
- YLPTRGGTTMASGGRFRCDSCRHE — higher, 3.35
- YLPTRGGTTMASGGRFRCRSCRHE — higher, 2.78
- YLPTRGGTTMASGGRFRCISCRHE — lower, 1.38
- YLPTRGGTTMASGGRFRCESCRHE — lower, 2.01
- YLPTRGGTTMASGGRFRCNSCRHE — higher, 2.6
- YLPTRGGTTMASGGRFRCSSCRHE — higher, 2.49
- YLPTRGGTTMASGGRFRCQSCRHE — higher, 3.5
- YLPTRGGTTMASGGRFRCWSCRHE — higher, 3.12
- YLPTRGGTTMASGGRFRCVSCRHE — lower, 1.78
- YLPTRGGTTMASGGRFREPSCRHE — higher, 2.98
- YLPTRGGTTMASGGRFRTPSCRHE — higher, 3.74
- YLPTRGGTTMASGGRFRVPSCRHE — higher, 2.71
- YLPTRGGTTMASGGRFRSPSCRHE — higher, 3.61
- YLPTRGGTTMASGGRFRGPSCRHE — higher, 3.27
- YLPTRGGTTMASGGRFRYPSCRHE — higher, 2.44
- YLPTRGGTTMASGGRFRHPSCRHE — higher, 2.94
- YLPTRGGTTMASGGRFRMPSCRHE — higher, 2.4
- YLPTRGGTTMASGGRFRLPSCRHE — higher, 3.47
- YLPTRGGTTMASGGRFRWPSCRHE — lower, 1.7
- YLPTRGGTTMASGGRFRFPSCRHE — higher, 2.43
- YLPTRGGTTMASGGRFRPPSCRHE — higher, 3.56
- YLPTRGGTTMASGGRFRNPSCRHE — higher, 3.15
- YLPTRGGTTMASGGRFRKPSCRHE — higher, 3.34
- YLPTRGGTTMASGGRFTCPSCRHE — higher, 2.96
- YLPTRGGTTMASGGRFICPSCRHE — lower, 1.69
- YLPTRGGTTMASGGRFHCPSCRHE — higher, 2.56
- YLPTRGGTTMASGGRFCCPSCRHE — lower, 1.6
- YLPTRGGTTMASGGRFSCPSCRHE — higher, 2.9
- YLPTRGGTTMASGGRFKCPSCRHE — lower, 1.48
- YLPTRGGTTMASGGRFNCPSCRHE — lower, 2.24
- YLPTRGGTTMASGGRFLCPSCRHE — higher, 2.6
